{"source": "patent US9222947B2", "about": "“Anti-sAPPβ antibody” (SHIONOGI & CO., LTD., priority 2012, dated 2015)", "molecules": {"B1": {"name": "5H10: mouse monoclonal antibody recognizing the internal structure/C-terminal fragments of sAPPβ; VH SEQ ID NO: 14, VL SEQ ID NO: 15 (antibody, V domains shown)", "VH": "QVQLQQSGTELAKPGASVKMSCKASGYTFIDYWMHWIKQSPGQGLEWIGFINPRSGSTTYNQKFRDKATLTVDTSSSTAYMQLTSLTSEDSAVYYCTRPDFDYFDYWGQGTTLTVSS", "VL": "DVLMTQTPLSLPVSLGDHASISCRSSQSIVQSNGNTYLEWYLQKPGQSPKLLIYKVSNRFSGVPDRFSGSGSGTDFTLKISSVEAEDLGIYYCFQASHVPLTFGAGTKLELKRA", "modifications": "VH of antibody 5H10; VL of antibody 5H10"}}, "molecular_target": "sAPPβ (Homo sapiens, UniProt P05067)", "sequence (P05067 18-671 limits assumed)": "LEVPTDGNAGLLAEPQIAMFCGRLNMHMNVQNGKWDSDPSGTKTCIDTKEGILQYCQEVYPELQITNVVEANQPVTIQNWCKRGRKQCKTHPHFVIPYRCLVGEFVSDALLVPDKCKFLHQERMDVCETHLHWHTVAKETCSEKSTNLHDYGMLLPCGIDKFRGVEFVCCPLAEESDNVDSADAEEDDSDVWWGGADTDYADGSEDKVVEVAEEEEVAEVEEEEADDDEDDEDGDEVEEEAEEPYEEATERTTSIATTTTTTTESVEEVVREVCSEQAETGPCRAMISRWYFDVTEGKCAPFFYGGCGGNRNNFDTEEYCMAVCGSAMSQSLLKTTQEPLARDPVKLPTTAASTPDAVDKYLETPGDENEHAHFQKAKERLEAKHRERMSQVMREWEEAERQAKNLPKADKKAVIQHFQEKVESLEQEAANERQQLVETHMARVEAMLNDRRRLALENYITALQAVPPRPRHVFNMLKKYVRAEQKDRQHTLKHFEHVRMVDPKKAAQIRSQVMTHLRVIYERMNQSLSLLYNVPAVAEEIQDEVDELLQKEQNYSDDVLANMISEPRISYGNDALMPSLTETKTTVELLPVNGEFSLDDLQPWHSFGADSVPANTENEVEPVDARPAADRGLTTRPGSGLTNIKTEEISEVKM", "test": "Binding affinity on GLM chip using ProteOn (SPR)", "details": "antibody immobilized, sAPPβ as analyte", "experimental": "Binding affinity of the neoepitope antibody, 4G4 was immobilized on a GLM chip (BIO-RAD) and analyzed using a ProteOn (BIO-RAD). 4 different concentrations of sAPPβ (40, 20, 10, 5 nM) were injected as the analytes. […] Binding affinity of the internal antibody, 5H10 was immobilized on a GLM chip (BIO-RAD) and analyzed using a ProteOn (BIO-RAD). […] concentrations of sAPPβ (1000, 250, 62.5, 15.6, 3.91 nM) were injected as the analytes.", "data": [{"molecule": "B1", "values": [{"measurement": "Kd", "value": 0.62, "unit": "nM"}]}]}
